Assay results from the supplement of paper PMC7877785.
± gives the uncertainty stated by the source.

Assay: self-splicing fitness, log relative to wild type (ln ratio); higher = more splicing; Tetrahymena group I intron in knt gene, E. coli kanamycin selection, DiMSum; sequences stand for … in CUCUCU…GGAGGGAAAAGUUAUCAGGCAUGCACCUGGUAGCUAGUCUUUAAACCAAUAGAUUGCAUCGGUUUAAAAGGCAAGACCGUCAAAUUGCGGGAAAGGGGUCAACAGCCGUUCAGUACCAAGUCUCAGGGGAAACUUUGAGAUGGCCUUGCAAAGGGUAUGGUAAUAAGCUGACGGACAUGGUCCUAACCACGCAGCCAAGUCCUAAGUCAACAGAUCUUCUGUUGAUAUGGAUGCAGUUCACAGACUAAAUGUCGGUCGGGGAAGAUGUAUUCUUCUCAUAAGAUAUAGUCGGACCUCUCCUUAAUGGGAGCUAGCGGAUGAAGUGAUGCAACACUGGAGCCGCUGGGAACUAAUUUGUAUGCGAAAGUAUAUUGAUUAGUUUUGGAGUACUCGUGGUCG
How it was run: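 Library with all eight P1ex-region intron nucleotides randomised, intron inside the knt kanamycin-resistance gene on pET-22b(+), in E. coli BL21(DE3). Cells grew overnight at 37°C or 30°C on LB agar with or without 25 μg/mL kanamycin (plus 100 μg/mL carbenicillin, 50 μM IPTG, 0.2% rhamnose), in six replicate transformations. Pooled colonies were amplicon-sequenced on Illumina HiSeq 2500. DiMSum fitness is the error-weighted combination of wild-type-normalised replicate fold changes, kanamycin versus none.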

Row | Sequence | self-splicing fitness (ln) (30 °C) | self-splicing fitness (ln) (37 °C)
1 | ACGCAGCAAUAUUACGGAGA | -2.66 ± 0.3 | -2.41 ± 0.2
2 | CUACAGCAAUAUUACGUACG | -0.289 ± 0.088 | 0.18 ± 0.099
3 | UAUCAGCAAUAUUACGAAAU | -2.9 ± 0.16 | -0.792 ± 0.15
4 | GCACAGCAAUAUUACGUUAC | -1.14 ± 0.074 | -0.837 ± 0.087
5 | GUUAAGCAAUAUUACGACGC | -1.05 ± 0.24 | -0.36 ± 0.21
6 | AUCGAGCAAUAUUACGUAAC | -3.15 ± 0.43 | –
7 | UCGCAGCAAUAUUACGCACU | -2.21 ± 0.18 | -0.563 ± 0.2
8 | GCUGAGCAAUAUUACGGUGC | -3.9 ± 0.3 | -1.61 ± 0.22
9 | AACAAGCAAUAUUACGAUGG | -3.11 ± 0.094 | -1.72 ± 0.079
10 | GGCUAGCAAUAUUACGGUCA | -0.918 ± 0.1 | -0.851 ± 0.085
11 | AGGCAGCAAUAUUACGUCUC | -4.52 ± 0.23 | -2.03 ± 0.14
12 | CAACAGCAAUAUUACGGACC | -2.98 ± 0.27 | -0.864 ± 0.23
13 | GUUUAGCAAUAUUACGUCUA | -1.25 ± 0.14 | -0.618 ± 0.13
14 | UGGAAGCAAUAUUACGGGUU | -2.85 ± 0.18 | -2.38 ± 0.41
15 | AUCCAGCAAUAUUACGUAUU | -1.84 ± 0.078 | -1.23 ± 0.093
16 | UGUGAGCAAUAUUACGGCCC | -1.88 ± 0.33 | -1.43 ± 0.44
17 | GCGGAGCAAUAUUACGGAAA | – | -1.54 ± 0.46
18 | UAAGAGCAAUAUUACGGCGA | -2.7 ± 0.32 | -2.09 ± 0.26
19 | GACAAGCAAUAUUACGGGGA | -3.05 ± 0.12 | -1.75 ± 0.1
20 | UUUUAGCAAUAUUACGCUCU | -0.0349 ± 0.23 | -0.135 ± 0.18
21 | UGCAAGCAAUAUUACGAUAC | -2.87 ± 0.23 | -2.24 ± 0.37
22 | UGCUAGCAAUAUUACGUCGG | -2.68 ± 0.25 | -0.202 ± 0.23
23 | GCAAAGCAAUAUUACGACUG | -1.3 ± 0.13 | -0.673 ± 0.15
24 | CGAUAGCAAUAUUACGUGCG | -2.23 ± 0.089 | -1.04 ± 0.1

Row | Sequence | self-splicing fitness (ln) (30 °C) | self-splicing fitness (ln) (37 °C)
25 | GCAGAGCAAUAUUACGGGAC | -3.3 ± 0.14 | -1.65 ± 0.11
26 | AGUUAGCAAUAUUACGGGAC | -3.33 ± 0.26 | -0.241 ± 0.12
27 | GGAUAGCAAUAUUACGCUGG | -2.25 ± 0.15 | -1.05 ± 0.18
28 | CAGCAGCAAUAUUACGGCGA | -0.356 ± 0.11 | -0.114 ± 0.12
29 | UGUCAGCAAUAUUACGUCUA | 0.314 ± 0.096 | -0.489 ± 0.1
30 | UUCCAGCAAUAUUACGGGAC | – | -1.29 ± 0.39
31 | GAUUAGCAAUAUUACGUCGG | -2.66 ± 0.24 | -3.05 ± 0.29
32 | CACAAGCAAUAUUACGUAGG | -1.23 ± 0.056 | -0.693 ± 0.082
33 | CUCAAGCAAUAUUACGGCUA | – | -2.22 ± 0.35
34 | CUCCAGCAAUAUUACGAGUG | -2.45 ± 0.11 | -1.34 ± 0.11
35 | UUUGAGCAAUAUUACGGCUA | -0.914 ± 0.23 | -1.2 ± 0.21
36 | CCGCAGCAAUAUUACGACUU | -3.51 ± 0.35 | -1.68 ± 0.32
37 | AGACAGCAAUAUUACGUCAU | -2.86 ± 0.13 | -2.17 ± 0.15
38 | CGUGAGCAAUAUUACGCAUA | -3.2 ± 0.28 | -1.18 ± 0.34
39 | ACUUAGCAAUAUUACGUACU | -0.497 ± 0.094 | -0.384 ± 0.1
40 | GUGAAGCAAUAUUACGGGUU | -1.67 ± 0.069 | -1.4 ± 0.1
41 | AGCCAGCAAUAUUACGACUC | -4.9 ± 0.46 | -2.49 ± 0.27
42 | AGAUAGCAAUAUUACGGUCC | -1.27 ± 0.14 | -1.03 ± 0.18
43 | AAAGAGCAAUAUUACGAUAG | -3.88 ± 0.23 | -2.9 ± 0.2
44 | AGUAAGCAAUAUUACGGGGC | -3.29 ± 0.36 | -2.29 ± 0.34
45 | GCUUAGCAAUAUUACGUUUU | -1.68 ± 0.068 | -0.474 ± 0.075
46 | GAUGAGCAAUAUUACGUUGA | -3.32 ± 0.43 | -1.5 ± 0.2
47 | CGUUAGCAAUAUUACGUACA | -0.358 ± 0.11 | -0.966 ± 0.12
48 | CGAUAGCAAUAUUACGCGUU | -3.13 ± 0.24 | -2.51 ± 0.22

Row | Sequence | self-splicing fitness (ln) (30 °C) | self-splicing fitness (ln) (37 °C)
49 | CAAAAGCAAUAUUACGCGCU | -3.18 ± 0.14 | -0.642 ± 0.1
50 | CGCUAGCAAUAUUACGGCCA | -0.309 ± 0.16 | -0.364 ± 0.2
51 | GCCUAGCAAUAUUACGGGCG | -2.03 ± 0.1 | -1.02 ± 0.097
52 | GCACAGCAAUAUUACGAUUA | -1.38 ± 0.087 | -0.549 ± 0.086
53 | CCGCAGCAAUAUUACGCUGU | -3.3 ± 0.36 | -2.85 ± 0.23
54 | AAAAAGCAAUAUUACGCACU | 0.146 ± 0.079 | 0.322 ± 0.083
55 | GGCAAGCAAUAUUACGUUUA | -1.29 ± 0.1 | -0.0113 ± 0.11
56 | GAGUAGCAAUAUUACGACCG | -3.1 ± 0.39 | -0.977 ± 0.37
57 | UAAAAGCAAUAUUACGCUAG | -1.09 ± 0.07 | -0.327 ± 0.091
58 | AAUGAGCAAUAUUACGCGUU | -3.81 ± 0.27 | -2.06 ± 0.23
59 | GCCCAGCAAUAUUACGCCAC | -4.89 ± 0.38 | -2.44 ± 0.18
60 | GCCUAGCAAUAUUACGUAAU | -0.648 ± 0.071 | 0.224 ± 0.087
61 | GAUCAGCAAUAUUACGGAUC | -2.99 ± 0.2 | -2.49 ± 0.36
62 | AUGCAGCAAUAUUACGGAAG | -3.07 ± 0.16 | -2.01 ± 0.2
63 | UCCCAGCAAUAUUACGAGGC | -2.23 ± 0.14 | -0.738 ± 0.14
64 | UUUUAGCAAUAUUACGGCAC | – | -0.642 ± 0.28
65 | AGCGAGCAAUAUUACGGGGA | -2.64 ± 0.35 | -1.22 ± 0.22
66 | GCCGAGCAAUAUUACGAAGC | -2.8 ± 0.33 | -1.8 ± 0.46
67 | CAGCAGCAAUAUUACGACUG | -3.64 ± 0.24 | -2.76 ± 0.33
68 | AAUCAGCAAUAUUACGCGUG | -0.227 ± 0.074 | 0.204 ± 0.085
69 | UUCAAGCAAUAUUACGCGAC | -2.61 ± 0.24 | -1.91 ± 0.2
70 | CGGCAGCAAUAUUACGAACU | -1.15 ± 0.44 | -0.121 ± 0.34
71 | GAGAAGCAAUAUUACGCGGU | -2.38 ± 0.16 | -0.663 ± 0.16
72 | UACUAGCAAUAUUACGCUUA | -1.38 ± 0.11 | -0.588 ± 0.11

Row | Sequence | self-splicing fitness (ln) (30 °C) | self-splicing fitness (ln) (37 °C)
73 | CCCUAGCAAUAUUACGAUUG | -3.45 ± 0.21 | -2.38 ± 0.21
74 | GCCGAGCAAUAUUACGUGCG | -2.17 ± 0.11 | -1.28 ± 0.098
75 | GCUGAGCAAUAUUACGCAAG | -3.22 ± 0.3 | -2.73 ± 0.44
76 | CCGUAGCAAUAUUACGAACG | -1.07 ± 0.12 | -0.439 ± 0.15
77 | CUGCAGCAAUAUUACGAGUU | -3.55 ± 0.21 | -2.83 ± 0.28
78 | ACUGAGCAAUAUUACGAGGA | -2.63 ± 0.23 | -1.83 ± 0.17
79 | AAAAAGCAAUAUUACGUGGU | -3.26 ± 0.11 | -2.74 ± 0.12
80 | CCUAAGCAAUAUUACGCAUG | -3.6 ± 0.33 | -1.51 ± 0.23
81 | GUCCAGCAAUAUUACGUACU | -2.47 ± 0.14 | -1.53 ± 0.14
82 | CUAGAGCAAUAUUACGACAC | -3.9 ± 0.39 | -2.63 ± 0.48
83 | CCUUAGCAAUAUUACGUACA | -3.88 ± 0.42 | -2.22 ± 0.3
84 | CAGGAGCAAUAUUACGACAU | -3.768 ± 0.031 | -2.94 ± 0.046
85 | CACCAGCAAUAUUACGUGGA | -3.55 ± 0.12 | -2.12 ± 0.09
86 | AGAGAGCAAUAUUACGAUGA | -3.27 ± 0.24 | -2.37 ± 0.23
87 | GGCAAGCAAUAUUACGCUAG | -3.39 ± 0.24 | -2.83 ± 0.37
88 | GUAAAGCAAUAUUACGCUCG | -0.0287 ± 0.1 | 0.709 ± 0.13
89 | CGAUAGCAAUAUUACGAUGA | -1.8 ± 0.17 | -0.503 ± 0.2
90 | CCCUAGCAAUAUUACGCCCA | -3.12 ± 0.25 | -3.76 ± 0.42
91 | UUCGAGCAAUAUUACGUAUA | -2.7 ± 0.33 | -2.78 ± 0.41
92 | AGGCAGCAAUAUUACGGUAU | -1.79 ± 0.093 | -0.467 ± 0.1
93 | AGCCAGCAAUAUUACGUGCC | -2.96 ± 0.15 | -1.98 ± 0.14
94 | CAGAAGCAAUAUUACGUCGA | -2.1 ± 0.13 | -0.369 ± 0.1
95 | UCUGAGCAAUAUUACGUCAG | -1.48 ± 0.096 | -0.513 ± 0.11
96 | AGACAGCAAUAUUACGUAAC | -3.82 ± 0.15 | -1.69 ± 0.15
